Target: myostatin pro peptide (wild type) (human) (UniProt O14793)
Assay: cell-based or functional assay

myostatin pro peptide (wild type) (human), sequence (O14793 24-266): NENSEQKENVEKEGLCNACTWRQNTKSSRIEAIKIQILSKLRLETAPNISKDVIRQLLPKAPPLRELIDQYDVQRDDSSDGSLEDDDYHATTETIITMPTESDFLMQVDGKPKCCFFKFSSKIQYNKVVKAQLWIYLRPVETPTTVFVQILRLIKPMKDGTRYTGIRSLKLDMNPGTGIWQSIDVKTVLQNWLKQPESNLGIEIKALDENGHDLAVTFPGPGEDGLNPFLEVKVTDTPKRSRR

fraction of the proteolytically-cleaved myostatin complex active in the reporter assay: > 50%
Substance: mammalian Tolloid-like-1 (mTLL-1) (from UniProt O43897 148-1013) (enzyme)

From US20040138118A1
